Test results published in PMC10636204.

Molecular target: T1, mouse TMEM63B (purified, GFP tag removed) (mouse), Q3TWI9
T1 chain: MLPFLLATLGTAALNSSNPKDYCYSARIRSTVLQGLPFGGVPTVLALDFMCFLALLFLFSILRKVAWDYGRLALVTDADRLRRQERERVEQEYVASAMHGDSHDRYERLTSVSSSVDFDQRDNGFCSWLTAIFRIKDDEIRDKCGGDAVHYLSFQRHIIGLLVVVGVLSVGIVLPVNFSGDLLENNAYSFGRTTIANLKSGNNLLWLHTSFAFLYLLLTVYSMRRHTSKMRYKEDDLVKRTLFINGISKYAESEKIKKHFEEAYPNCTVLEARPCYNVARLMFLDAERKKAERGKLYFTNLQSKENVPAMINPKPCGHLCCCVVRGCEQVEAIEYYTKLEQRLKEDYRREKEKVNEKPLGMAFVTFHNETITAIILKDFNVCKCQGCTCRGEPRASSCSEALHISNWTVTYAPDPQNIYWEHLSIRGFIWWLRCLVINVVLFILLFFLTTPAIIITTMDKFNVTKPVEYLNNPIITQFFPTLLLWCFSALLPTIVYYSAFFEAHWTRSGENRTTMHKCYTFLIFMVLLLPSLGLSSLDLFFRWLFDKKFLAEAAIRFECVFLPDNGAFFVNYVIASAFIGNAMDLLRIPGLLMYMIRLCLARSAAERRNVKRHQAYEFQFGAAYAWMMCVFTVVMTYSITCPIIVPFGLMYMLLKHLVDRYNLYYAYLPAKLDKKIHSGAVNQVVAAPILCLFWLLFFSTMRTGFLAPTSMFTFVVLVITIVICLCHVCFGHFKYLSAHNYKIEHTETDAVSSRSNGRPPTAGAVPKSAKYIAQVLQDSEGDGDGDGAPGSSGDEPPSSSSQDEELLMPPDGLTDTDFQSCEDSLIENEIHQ
Test: cryo-EM 2D classification; purified mouse TMEM63B; 2D classification of particles, top/bottom views
Conditions: remark: other sources report otherwise

B1: mouse TMEM63B (purified, GFP tag removed), Q3TWI9 1-832 (natural protein)
chain: T1 chain
Which stoichiometry N does the source give for B1 here?
The stoichiometry N was 2.
